# Changes are numbered by the printed parent chain.
# T1: Macaca fascicularis IL2Rγ extracellular domain expressed with a C-terminal myc-myc-hexahistidine tag (Macaca fascicularis)
# T1 construct: also called mfIL-2Rg-MMH; mfIL-2RG-MMH
# T1 chain: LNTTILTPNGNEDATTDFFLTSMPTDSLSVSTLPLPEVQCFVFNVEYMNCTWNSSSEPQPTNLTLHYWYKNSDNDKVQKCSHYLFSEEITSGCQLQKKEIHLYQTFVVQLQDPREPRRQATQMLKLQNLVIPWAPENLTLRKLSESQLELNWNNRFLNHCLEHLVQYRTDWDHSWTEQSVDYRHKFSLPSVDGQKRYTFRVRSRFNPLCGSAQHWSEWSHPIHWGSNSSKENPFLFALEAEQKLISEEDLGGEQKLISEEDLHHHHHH
# T2: Human IL2Rγ extracellular domain expressed with a C-terminal myc-myc-hexahistidine tag (human)
# T2 construct: also called hIL-2Rg-MMH; hIL-2RG-MMH
# T2 chain: T1 chain with A14T, T16A, S22T, R141H, S228T
# T3: Human IL2Rγ extracellular domain expressed with a C-terminal myc-myc-hexahistidine tag (human)
# T3 construct: also called hIL-2Rg-MMH; hIL-2RG-MMH
# T3 chain: T1 chain with A14T, T16A, S22T, R141H, S228T
# T4: Macaca fascicularis IL2Rγ extracellular domain expressed with a C-terminal myc-myc-hexahistidine tag (Macaca fascicularis)
# T4 construct: also called mfIL-2Rg-MMH; mfIL-2RG-MMH
# T4 chain: T1 chain
# B1: H4H13538P (antibody, human IgG4 S228P, kappa, V domains shown)
# VH: EVQLVESGGGLVQPGGSLGLSCAASGFTFSNYAMSWVRQAPGKGLEWVSAVSGGGGGTYYADSVKGRFTISRDNSKNTVLLQMNSLRAEDTAVYYCARGRTGGLDYWGPGTLVTVSS
# VL: DVVMTQSPLSLPVIFGQPASISCRSSQSLVDSDGNTYLNWLQQRPGQSPRRLIYEVSNRDSGVPDRFSGSGSGTDFTLTISRVEAEDVGIYYCMQGTRWPPTFGGGTKVEIKR
# notes: anti-IL2Rγ monoclonal antibody expressed with human IgG4 Fc
# B2: H4H13541P (antibody, human IgG4 S228P, kappa, V domains shown)
# VH: EVQLVESGGGVVRPGGSLRLSCAASGFIFDDYDMSWVRQPPGRGLEWVSGIDWFGGTRGYADSMKGRFTISRDNAKNSLYLQMNSLRVEDTAFYYCARGGAIVGAVTPFDYWGQGTLVTVSS
# VL: DIQMTQSPSSLSASVGNRVTLSCRASQSINTYLSWYQQRPGKAPKLLIYAASSLQSGVPSRFSGSGAGTDFTLTISSLQPEDFATYYCQQSYSAPLTFGGGTKVEIKR
# notes: as for B1
# B3: H4H13544P2 (antibody, human IgG4 S228P, kappa, V domains shown)
# VH: QLQLQESGPGLVKPSETLSLTCTVSGGSISIKNYYWGWIRQPPGKGLEWIGSIYYSGTTYYNPSLKSRVTISVDTSKNQFSLKLSSVTAADTAVYHCARHGYSYGHGWFDPWGQGTLVTVSS
# VL: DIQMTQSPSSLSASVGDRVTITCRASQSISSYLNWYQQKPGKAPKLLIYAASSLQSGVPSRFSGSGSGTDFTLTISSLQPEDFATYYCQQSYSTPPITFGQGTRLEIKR
# notes: as for B1
# B4: H4H13545P2 (antibody, human IgG4 S228P, kappa, V domains shown)
# VH: QVQLQQSGPGLVKPSQTLSLTCDISGDSVSSNIATWNWIRQSPSRGLEWLGRTYYRSKWYKDYAVSVKSRITINPDTSKNQFSLQVNSVTPEDTAVYYCARMTGPRYYFEYWGQGTLVTVSS
# VL: not shown
# notes: as for B1
# B5: H4H12924P2 (antibody, human IgG4 S228P, kappa, V domains shown)
# VH: EVQLVESGGGLVQPGRSLRLSCAASGFTLEDYAMHWVRQAPGKGLEWVSGISWNRGSTGYADSVKGRFTISRDNAKNSLYLQMTSLRAEDTALYYCAKGFYSMDVWGQGTTVTVSS
# VL: not shown
# notes: as for B1
# B6: H4H13545P2 (antibody, human IgG4 S228P, kappa, V domains shown)
# VH: B4 VH
# VL: not shown
# notes: anti-IL2Rgamma mAb expressed with human IgG4 Fc
# B7: H4H12924P2 (antibody, human IgG4 S228P, kappa, V domains shown)
# VH: B5 VH
# VL: not shown
# notes: as for B6
# B8: H4H12926P2 (antibody, human IgG4 S228P, kappa, V domains shown)
# VH: QVQLQQSGPGLVKPSQTLSLTCAISGDSVSSNIAAWNWIRLSPSRGLEWLGRTFFRSTWFYDYSLSVKGRITINPDTSKNQFSLHLNSVTPEDAAVYYCARTGRRWSLDYWGQGTLVTVSS
# VL: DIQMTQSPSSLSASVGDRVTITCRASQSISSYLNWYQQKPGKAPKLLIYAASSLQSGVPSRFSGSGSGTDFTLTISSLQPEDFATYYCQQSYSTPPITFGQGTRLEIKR
# notes: as for B6
# Biological target: T1, Macaca fascicularis IL2Rγ extracellular …
# Test: SPR Biacore 4000, mAb captured by anti-hFc, 37C, dissociation in PBS-T pH 7.4
# Method: (§1) The dissociation rate constant (kd) for binding of IL-2Rγ reagents to purified anti-IL2Rγ monoclonal antibodies was determined using a real-time surface plasmon resonance based Biacore 4000 biosensor platform. […] The CM5 Biacore sensor surface derivatized by amine coupling with monoclonal mouse anti-human Fc antibody (GE, Catalog # BR-1008-39) was used to capture anti-IL2Rγ monoclonal antibodies expressed with human IgG4 Fc. All the IL2Rγ reagents were expressed with a C-terminal myc-myc-hexahistidine tag (subsequently referred to with a -MMH suffix). […] The dissociation of bound IL-2Rg-MMH was performed in PBS-T-pH7.4 or PBS-T-pH6.0 running buffers for 6 minutes.
# (§2) Dissociation rate constants (kd) in two running buffers were determined by fitting the real-time binding sensorgrams to a 1:1 binding model using Scrubber 2.0c curve-fitting software. Values of dissociation rate for […] mAb binding to hIL-2RG-MMH and mfIL-2RG-MMH at 25° C. and 37° C. in PBS-T-pH7.4 and PBS-T-pH6.0 is shown in Table 2-1 through Table 2-8.
Binder,100 nM Ag Bound (RU),koff [s⁻¹],t1/2 [min]
B1,119,0.00051,23
B2,100,0.000512,23
B3,58,0.00362,3.2
B4,17,,
B5,133,0.00267,4

# Biological target: T1, Macaca fascicularis IL2Rγ extracellular …
# Test: SPR Biacore 4000, mAb captured by anti-hFc, HBS-ET, 25C
# Method: (§3) Equilibrium dissociation constants (KD values) for IL-2Rγ binding to purified anti-IL2Rγ monoclonal antibodies were determined using a Biacore 4000 instrument equipped with a real-time surface plasmon resonance biosensor. All binding studies were performed in 10 mM HEPES, 150 mM NaCl, 3 mM EDTA, and 0.05% v/v Surfactant Tween-20, pH 7.4 (HBS-ET) running buffer at 25° C. and 37° C. The Biacore sensor surface was first derivatized by amine coupling with a monoclonal mouse anti-human Fc antibody (GE, # BR-1008-39) to capture anti-IL2Rγ monoclonal antibodies.
# (§4) The dissociation of monoclonal antibody bound IL2Rγ reagents were monitored for 8-10 minutes in HBS-ET running buffer. Kinetic association (kₐ) and dissociation (kd) rate constants were determined by fitting the real-time sensorgrams to a 1:1 binding model using Scrubber 2.0c curve fitting software. Binding dissociation equilibrium constants (KD) and dissociative half-lives (t_{1/2}) were calculated from the kinetic rate constants as: […]
Binder,100 nM Ag Bound [RU],Kd [nM],koff [s⁻¹],kon [M⁻¹ s⁻¹],t1/2 [min]
B1,81,2.28,0.000304,133000,38
B2,82,1.85,0.000315,170000,37
B3,60,24.6,0.00127,51700,9
B4,26,143,0.014,97800,0.8
B5,73,6.58,0.00165,251000,7

# Biological target: T2, Human IL2Rγ extracellular domain …
# Test: as above
# Method: as §3, §4
Binder,100 nM Ag Bound [RU],Kd [nM],koff [s⁻¹],kon [M⁻¹ s⁻¹],t1/2 [min]
B1,68,1.02,0.000227,222000,51
B2,72,2.41,0.000252,105000,46
B3,51,28.7,0.00135,47200,9
B4,12,336,0.0575,171000,0.2
B5,78,5.38,0.00174,322000,7

# Biological target: T3, Human IL2Rγ extracellular domain …
# Test: SPR, captured mAb, 25C, dissociation pH 6.0
# Method: as §1, §2
Binder,100 nM Ag Bound (RU),koff [s⁻¹],t1/2 [min]
B6,11,0.0334,0.3
B7,136,0.00367,3
B8,24,0.0297,0.4

# Biological target: T4, Macaca fascicularis IL2Rγ extracellular …
# Test: SPR, captured mAb, 25C, dissociation pH 6.0
# Method: as §1, §2
Binder,100 nM Ag Bound (RU),koff [s⁻¹],t1/2 [min]
B6,20,0.00935,1.2
B7,131,0.00305,4
B8,32,0.0185,0.6

# Biological target: T2, Human IL2Rγ extracellular domain …
# Test: SPR Biacore 4000, mAb captured by anti-hFc, HBS-ET, 37C
# Method: as §3, §4
Binder,100 nM Ag Bound [RU],Kd [nM],koff [s⁻¹],kon [M⁻¹ s⁻¹],t1/2 [min]
B1,99,3.4,0.00108,319000,11
B2,103,5.01,0.00078,156000,15
B3,49,103,0.00782,76000,1.5
B4,7,113,0.0691,611000,0.2
B5,26,18,0.0157,871000,0.7

# Biological target: T1, Macaca fascicularis IL2Rγ extracellular …
# Test: SPR Biacore 4000, mAb captured by anti-hFc, 37C, dissociation in PBS-T pH 6.0
# Method: as §1, §2
Binder,100 nM Ag Bound (RU),koff [s⁻¹],t1/2 [min]
B1,122,0.00139,8
B2,91,0.0015,8
B3,43,0.00781,1.5
B4,13,,
B5,126,0.0124,0.9

# Biological target: T3, Human IL2Rγ extracellular domain …
# Test: SPR, captured mAb, 37C, dissociation pH 7.4
# Method: as §1, §2
Binder,100 nM Ag Bound (RU),koff [s⁻¹],t1/2 [min]
B6,7,,
B7,133,0.00302,4
B8,14,0.0308,0.4

# Biological target: T3, Human IL2Rγ extracellular domain …
# Test: SPR, captured mAb, 25C, dissociation pH 7.4
# Method: as §1, §2
Binder,100 nM Ag Bound (RU),koff [s⁻¹],t1/2 [min]
B6,15,0.0213,0.5
B7,124,0.000479,24
B8,29,0.0133,0.9

# Biological target: T4, Macaca fascicularis IL2Rγ extracellular …
# Test: SPR, captured mAb, 25C, dissociation pH 7.4
# Method: as §1, §2
Binder,100 nM Ag Bound (RU),koff [s⁻¹],t1/2 [min]
B6,30,0.00751,1.5
B7,130,0.000385,30
B8,43,0.00782,1.5

# Biological target: T3, Human IL2Rγ extracellular domain …
# Test: SPR, captured mAb, 37C, dissociation pH 6.0
# Method: as §1, §2
Binder,100 nM Ag Bound (RU),koff [s⁻¹],t1/2 [min]
B6,6,,
B7,133,0.0143,0.8
B8,14,0.0312,0.4
